The text below walks through data of patent US20210347899A1 (BRIGHAM AND WOMEN S HOSPITAL, published 2021).

The chains are these.
T1: full length human KLRG1 (human, UniProt Q96E93 1-195)
T1 construct: whole, on cells; also called CHO-human-KLRG1; CHO-hKLRG1
T1 sequence (looked up): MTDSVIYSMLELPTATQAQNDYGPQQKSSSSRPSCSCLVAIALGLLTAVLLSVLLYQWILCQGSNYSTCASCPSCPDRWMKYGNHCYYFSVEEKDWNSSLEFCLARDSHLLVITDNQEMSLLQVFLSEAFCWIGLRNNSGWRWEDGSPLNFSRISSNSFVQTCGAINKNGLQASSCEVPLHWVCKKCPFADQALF

T2: cynomolgus KLRG1 ECD (cynomolgus, biotinylated in the OCTET assay, site not stated)
T2 construct: Recombinant proteins were made as FC fusion or as HIS tagged versions; also called cynonolgus KLRG1 ECD
T2 chain: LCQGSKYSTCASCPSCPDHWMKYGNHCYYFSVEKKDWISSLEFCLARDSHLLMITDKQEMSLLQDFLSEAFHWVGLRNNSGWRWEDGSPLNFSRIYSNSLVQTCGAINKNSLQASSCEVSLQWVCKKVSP

T3: full length cynomolgus KLRG1 (cynomolgus, UniProt A0A2K5WAP9 1-186)
T3 construct: whole, on cells; also called Cyno KLRG1; CHO-cynomolgus-KLRG1
T3 sequence: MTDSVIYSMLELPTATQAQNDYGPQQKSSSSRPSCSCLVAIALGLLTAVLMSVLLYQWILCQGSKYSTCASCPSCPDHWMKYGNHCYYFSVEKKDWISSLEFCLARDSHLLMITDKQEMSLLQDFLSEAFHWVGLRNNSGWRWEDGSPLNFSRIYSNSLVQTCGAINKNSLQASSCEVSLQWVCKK

B1: ABC_G1N08 (antibody, V domains shown)
VH: QVQLQQSGAELAKPGASVKLSCKASGYTFTSYFLHWVKQRPGQGLEWIGYMNPSSGYTKCNQKFKDKATLTADKSSSTAYMQVSSLTYEDSAVYYCARDRIGYWDFDVWGTGTTVTVSS
VL: DVVMTQSQKFMSTTVGDRVSITCKASQNVGTAVAWYQQKPGQSPKLLIYSASNRYTGVPDRFTGSGSGTDFTLTITNMQSEDLADYFCQQYSSYLTFGAGTKLDLK
notes: Mouse hybridoma monoclonal antibody
B2: ABC_G1N01 (antibody, V domains shown)
VH: QVILKESGPGILQPSQTLSLTCSFSGFSLTTFGMGIGWIRHPSGKALEWLAHIWWNDDKSYNSALKSRLTISKDTSKNQVFLRLANVATADTATYYCARTIYYGNYLTFYAMEHWGQGTSVTVSS
VL: DVLLTQTPLSLPVSLGDQASISCRSSQNIVHSNGNTYLEWYLLKPGQSPKLLIFKVSNRFSGVPDKFSGSGSGTDFTLKIRRVEAEDLGIYYCFQGSHVPPTFGAGTKLELK
notes: as for B1
B3: ABC_G1N02 (antibody, V domains shown)
VH: QVTLKESGPGILQPSQTLSLTCSVSGFSLSTFGMGVGWIRQPSGKGLEWLAHIWWDDDKWYELALKSRLTISKDSSKNQVFLKIANVDTADTATYFCARVIYYGSRSAYYSMDYWGPGTSVTVSS
VL: DVLMTQTPLSLPVSLGAQASISCKSSQSIVHSNGHTYLEWYLQKPGQSPKILIYKVSNRFSGVPDRFSGSGSGTDFTLKISRVEAEDLGVYYCFQGSHVPVTFGAGTKLELK
notes: as for B1
B4: ABC_G1N05 (antibody, V domains shown)
VH: EVLLMESGGDLVKPGGSLKLSCAASGFTFSSYDMSWVRQTPDKRLEWVATISSSGRYTFYPDNVKGRFTISRDNAKNTLYLQVSNLKSEDTAMYYCSRTGVTTVVFTDYFDYWGQGTTLTVSS
VL: DIQMTQSPSSLSASLGERVSLTCRASQDIGNSLNWLQQGPDGTIKRLIYATSSLDSGVPKRFSGSRSGSTYSLTISSLESEDFVAYYCLQYLSSPPTFGGGTKLEIK
notes: as for B1
B5: ABC_G1N07 (antibody, V domains shown)
VH: EVQLVESGGGLVKPGGSLKLSCTASGFTFRNYAMSWVRQTPEKRLEWVATISESGNYNNYPDNVKGRLTISRDNAKNNLYLQMSLLKSEDTAMYYCVRDDWEGRAMDYWGQGTSVTVSS
VL: B4 VL with D1G, Q27R, N31S, G39K, S69T, T70D, A85D, Y87F, L92A, P96W
notes: as for B1
B6: HIS tagged recombinant E-cadherin (ligand)
chain: DWVIPPISCPENEKGPFPKNLVQIKSNKDKEGKVFYSITGQGADTPPVGVFIIERETGWLKVTEPLDRERIATYTLFSHAVSSNGNAVEDPMEILITVTDQNDNKPEFTQEVFKGSVMEGALPGTSVMEVTATDADDDVNTYNAAIAYTILSQDPELPDKNMFTINRNTGVISVVTTGLDRESFPTYTLVVQAADLQGEGLSTTATAVITVTDTNDNPPIFNPTTYKGQVPENEANVVITTLKVTDADAPNTPAWEAVYTILNDDGGQFVVTTNPVNNDGILKTAKGLDFEAKQQYILHVAVTNVVPFEVSLTTSTATVTVDVLDVNEAPIFVPPEKRVEVSEDFGVGQEITSYTAQEPDTFMEQKITYRIWRDTANWLEINPDTGAISTRAELDREDFEHVKNSTYTALIIATDNGSPVATGTGTLLLILSDVNDNAPIPEPRTIFFCERNPKPQVINIIDADLPPNTSPFTAELTHGASANWTIQYNDPTQESIILKPKMALEVGDYKINLKLMDNQNKDQVTTLEVSVCDCEGAAGVCRKAQPVEAGLQIPA
notes: also called human E-cadherin; not shown: HIS tag

Residue numbers refer to the chain shown, from its start.

The target in the first test is T1, full length human KLRG1. The test can be described thus: FACS competition, loss of HIS tagged E-cadherin binding to CHO-hKLRG1 cells. The method, then:
(§1) The ability of monoclonal antibodies to inhibit E-cadherin/KLRG1 binding was measured by FACS. Binding of E-cadherin to CHO-hKLRG1 cells was first determined by incubating the KLRG1 expressing cells with varying concentration of HIS tagged recombinant E-cadherin and detected by FACS with anti-HIS detection antibody.
B1 displayed an IC50 of 10 nM.
Take B2: the IC50 was found to be 12.2 nM. This IC50 and that of the molecule before are within 1.5-fold of each other.
On the same count and under the same terms, under B3 stands 5.03 nM; under B4, 23 nM; under B5, 9.6 nM.

A further test concerns the target T1, full length human KLRG1. The test can be described thus: FACS on CHO-human-KLRG1 cells. How it is done: (§2) Binding of anti-KLRG1 monoclonal antibodies to cell expressed human and cynomolgus-KLRG1 was carried out by FACS. Chinese hamster ovary (CHO) cells were stably transfected to express full length human KLRG1 (CHO-human-KLRG1) and cynomolgus KLRG1 (CHO-cynomolgus-KLRG1).
The molecule B1 gave an EC50 of 4.8 nM.
The same measure, in the same setting: under B2 stands 1.21 nM; under B3, 1.01 nM; under B4, 39.8 nM.
On to B5, for which a half-maximal effect (EC50) was put at 0.94 nM.

The target of a further test is T1, full length human KLRG1. The experiment in a line: E-cadherin binding inhibition study, FACS on CHO-hKLRG1 cells; labels of Table 12 stand one row too low, value agrees with ABC_G1N08 in Table 8. How it is done: as §1
(§3) IC50 values for each antibody were derived from E-cadherin binding inhibition studies and plotted against IFNγ production levels measured in CD8+ T cells IFNγ release assays.
In turn, B1 gave an IC50 of 10 nM.

Another test deals with T1, full length human KLRG1. The experiment in a line: cell-based or functional assay.
For B1, the “IFNγ released (pg/ml), Sample 1” value is 1010 pg/mL and the “IFNγ released (pg/ml), Sample 2” value was 1060 pg/mL.
In the case of B2, the “IFNγ released (pg/ml), Sample 1” value was 1190 pg/mL and the “IFNγ released (pg/ml), Sample 2” value worked out at 1220 pg/mL.
For B3, in that order: 1440 pg/mL and 1290 pg/mL.
In the case of B4, the “IFNγ released (pg/ml), Sample 1” value was 1010 pg/mL and the “IFNγ released (pg/ml), Sample 2” value worked out at 1080 pg/mL.
The like results for B5 were, in that order, 1580 pg/mL and 1390 pg/mL.

For a further test, the target named is T1, full length human KLRG1. The test can be described thus: FACS, HIS tagged E-cadherin on CHO-hKLRG1 cells, anti-HIS detection. How it is done:
as §1
In turn, B6 registered an EC50 of 1000 nM.

For the next test, the target named is T1, full length human KLRG1. The experiment in a line: E-cadherin binding inhibition study, FACS on CHO-hKLRG1 cells; labels of Table 12 stand one row too low, value agrees with ABC_G1N02 (5.03) in Table 8. How it is done: as §1, §3
The molecule B3 came in with an IC50 of 5 nM.

Another test addresses T1, full length human KLRG1. The test can be described thus: E-cadherin binding inhibition study, FACS on CHO-hKLRG1 cells; labels of Table 12 stand one row too low, value agrees with ABC_G1N07 in Table 8. The method, then:
as §1, §3
On to B5, for which the IC50 worked out at 9.6 nM.

The target of another test is T2, cynomolgus KLRG1 ECD. The experiment in a line: hybridoma screen for binding to KLRG1 ECD.
B1: the binding result is recorded as “binds”.
In the case of B2, the binding result is reported as “binds”.
Still for that read-out and setting: to B3 belongs “binds”; to B4, “binds”.
Take B5: the binding result is “binds”.

The next test concerns the target T3, full length cynomolgus KLRG1. The experiment in a line: FACS on CHO-cynomolgus-KLRG1 cells. The method, then: as §2
As for B1, it took 1.3 nM to reach a half-maximal effect (EC50).
Same read-out and setting: under B2 stands 1.45 nM; under B3, 2.02 nM; under B4, 0.5 nM.
The same measure, in the same setting: to B5 belongs 0.98 nM.

In a further test the target is T1, full length human KLRG1. The test can be described thus: cell-based or functional assay. This is another data set of the same source.
As for B1, the “IFNγ” value was 1040 pg/mL.
Still for that read-out and setting: under B2 stands 1200 pg/mL.
Still for that read-out and setting: to B3 belongs 1370 pg/mL; to B4, 1050 pg/mL.
Same read-out and setting: to B5 belongs 1480 pg/mL.

The target of a further test is T1, full length human KLRG1. The experiment in a line: E-cadherin binding inhibition study, FACS on CHO-hKLRG1 cells; labels of Table 12 stand one row too low, value agrees with ABC_G1N05 in Table 8. The method, then:
as §1, §3
The molecule B4 gave an IC50 of 23 nM.
